Results from patent US7470669B2, “Isolated polypeptide comprising a leptin fragment” (Serono Genetics Institute, S.A., priority 1999, dated 2008).

Key:
LSR = LSR activity (oleate-induced 125I-LDL binding, uptake, degradation) in primary cultures of rat hepatocytes; assay type: cell-based
Description: FIGS. 6A, 6B, and 6C show the effect of leptin on ^125I-LDL and ^125I-chylomicron binding to LSR in primary cultures of rat hepatocytes. For FIG. 6A, primary cultures of rat hepatocytes (48 hours after plating) were incubated at 37° C. for 30 min in the absence (□) or presence (▪) of 50 ng/mL leptin in Buffer A, followed by a 20 min incubation at 37° C. with 0.5 mM oleate. The cells were then washed with ice-cold PBS, precooled for 10 min, and then incubated for 1 h at 4° C. with increasing concentrations of ^125I-LDL in Buffer A. Cells were washed, were lysed in 0.1 N NaOH and were counted for radioactivity. Results are shown as the mean of duplicate determinations. […] The media was recovered and the radioactivity was measured. […] The amount of ^125I-chylomicrons bound was determined, and results are shown as means±SD of triplicate (irrelevant) or quadruplicate (anti-LSR) determinations.
FIGS. 7A and 7B show a comparison of the effect of human and mouse leptin on LSR activity in rat hepatocytes and on postprandial increase in plasma TG in db^Pas/db^Pas mice. […] The media were removed and were analyzed for TCA-soluble degradation products. […] The data represent the difference in TG concentrations measured at t=0 and the average of the concentrations at 3 and 4 hours. […]

ob/ob mice = assay: Food intake of ob/ob mice under daily subcutaneous injections; assay type: in vivo, mouse; conditions: daily subcutaneous injections of 25 μg over a 12 day period
Description: A synthetic peptide with a sequence identical to that of mouse leptin between residues 117-138 was obtained and found to stimulate the oleate-induced binding of ^125I-LDL in primary cultures of rat hepatocytes (FIG. 11B, insert). Daily subcutaneous injections of 25 μg of this synthetic leptin peptide to ob/ob mice had no effect on the food intake over a 12 day period (7.6±0.4 g/day in ob/ob receiving saline and 6.7±0.3 g/day in ob/ob receiving peptide; n=4, NS). Daily injections of 25 μg of mouse leptin caused a reduction of food intake to 4.7±0.5 g/day (n=3; p<0.003 versus controls).

B1: mouse leptin: recombinant mouse leptin, laboratory-prepared or commercial (Sigma, Calbiochem) (protein, UniProt P41160 22-167, looked up)
Leptin: VPIQKVQDDTKTLIKTIVTRINDISHTQSVSAKQRVTGLDFIPGLHPILSLSKMDQTLAVYQQVLTSLPSQNVLQIANDLENLRDLLHLLAFSKSCSLPQTSGLQKPESLDGVLEASLYSTEVVALSRLQGSLQDILQQLDVSPEC
stimulation of LSR-mediated LDL degradation in primary cultures of rat hepatocytes (LSR; 10 ng/mL recombinant leptin): more efficient than human leptin
oleate-induced 125I-LDL binding to the cell surface (LSR; rat hepatocytes, 30 min preincubation with 20 ng/mL at 37° C., binding at 4° C.): increased
food intake (ob/ob mice): 4.7 ± 0.5 g/day
